From article PMC5777638 (Nature, 2018) come the findings set out here.

T1: RNA polymerase III subunit C128 (Saccharomyces cerevisiae, UniProt P22276 1-1149)
T1 sequence (looked up): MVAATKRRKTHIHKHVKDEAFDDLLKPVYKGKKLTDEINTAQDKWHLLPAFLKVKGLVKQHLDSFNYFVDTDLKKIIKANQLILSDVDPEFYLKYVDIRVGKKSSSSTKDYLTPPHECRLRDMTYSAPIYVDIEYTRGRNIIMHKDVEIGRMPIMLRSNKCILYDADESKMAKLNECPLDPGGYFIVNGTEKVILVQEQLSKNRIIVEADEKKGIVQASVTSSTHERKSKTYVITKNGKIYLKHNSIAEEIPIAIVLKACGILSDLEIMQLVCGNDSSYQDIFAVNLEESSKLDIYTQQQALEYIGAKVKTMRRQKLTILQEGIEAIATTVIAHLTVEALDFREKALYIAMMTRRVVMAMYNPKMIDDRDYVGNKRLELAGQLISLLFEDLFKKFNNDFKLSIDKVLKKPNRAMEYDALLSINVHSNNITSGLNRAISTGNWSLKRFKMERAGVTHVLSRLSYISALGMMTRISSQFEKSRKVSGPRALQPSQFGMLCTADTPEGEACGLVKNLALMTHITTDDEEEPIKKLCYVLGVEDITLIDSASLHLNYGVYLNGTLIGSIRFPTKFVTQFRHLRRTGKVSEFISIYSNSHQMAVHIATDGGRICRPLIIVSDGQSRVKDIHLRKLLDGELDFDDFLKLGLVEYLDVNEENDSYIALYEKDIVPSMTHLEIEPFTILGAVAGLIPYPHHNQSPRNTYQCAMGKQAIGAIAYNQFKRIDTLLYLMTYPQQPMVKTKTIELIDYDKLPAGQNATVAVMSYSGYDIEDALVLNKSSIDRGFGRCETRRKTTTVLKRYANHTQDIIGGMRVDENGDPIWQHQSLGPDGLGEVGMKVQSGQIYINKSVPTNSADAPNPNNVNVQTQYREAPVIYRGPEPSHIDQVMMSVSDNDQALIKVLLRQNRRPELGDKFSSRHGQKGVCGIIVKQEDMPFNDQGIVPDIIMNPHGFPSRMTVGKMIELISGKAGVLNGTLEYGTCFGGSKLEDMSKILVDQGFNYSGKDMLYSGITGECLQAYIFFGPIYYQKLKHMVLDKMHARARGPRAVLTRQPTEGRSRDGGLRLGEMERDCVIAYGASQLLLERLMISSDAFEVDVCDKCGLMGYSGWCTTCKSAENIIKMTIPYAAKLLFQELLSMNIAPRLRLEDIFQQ

B1: RNA polymerase III subunit C37 (natural protein, Saccharomyces cerevisiae, UniProt P36121 1-282, looked up)
chain: MSIDNKLFVTEEDEEDRTQDRADVEDESNDIDMIADENGTNSAIANEQEEKSEEVKAEDDTGEEEEDDPVIEEFPLKISGEEESLHVFQYANRPRLVGRKPAEHPFISAARYKPKSHLWEIDIPLDEQAFYNKDKAESEWNGVNVQTLKGVGVENNGQYAAFVKDMQVYLVPIERVAQLKPFFKYIDDANVTRKQEDARRNPNPSSQRAQVVTMSVKSVNDPSQNRLTGSLLAHKVADEEANIELTWAEGTFEQFKDTIVKEAEDKTLVALEKQEDYIDNLV
B2: RNA polymerase III subunit C34 (natural protein, Saccharomyces cerevisiae, UniProt P32910 1-317, looked up)
chain: MSGMIENGLQLSDNAKTLHSQMMSKGIGALFTQQELQKQMGIGSLTDLMSIVQELLDKNLIKLVKQNDELKFQGVLESEAQKKATMSAEEALVYSYIEASGREGIWSKTIKARTNLHQHVVLKCLKSLESQRYVKSVKSVKFPTRKIYMLYSLQPSVDITGGPWFTDGELDIEFINSLLTIVWRFISENTFPNGFKNFENGPKKNVFYAPNVKNYSTTQEILEFITAAQVANVELTPSNIRSLCEVLVYDDKLEKVTHDCYRVTLESILQMNQGEGEPEAGNKALEDEEEFSIFNYFKMFPASKHDKEVVYFDEWTI

The target in assay [1] is B2. The experiment in a line: cryo-EM structure.
The target of assay [2] is T1, RNA polymerase III subunit C128. Kind of assay: cryo-EM structure.

Take B1: the binding result in assay [1] is recorded as “binds”.

Consider B2, for which the binding result in assay [2] is listed as “binds”.
